Experimental findings from CN117616043A (BIOGIC DESIGN LTD, dated 2024) are described below.

For one assay, the target named is hTSLP-His (human, UniProt Q969D9 29-159, limits assumed). In words: cell-based or functional assay.
The target of the next assay is 重组人IL-13 (rh-IL-13) (human, UniProt P35225 35-146). The assay is described as follows: cell-based or functional assay.
Another assay concerns the target T1, 人TSLP (hTSLP) (human, UniProt Q969D9 29-159).
T1 construct: also called rhTSLP
The assay is described as follows: SPR and ELISA, conclusion of Example 3. Background: ELISA stands for enzyme-linked immunosorbent assay.

Chain of 重组人IL-13 (rh-IL-13) (P35225 35-146 limits assumed): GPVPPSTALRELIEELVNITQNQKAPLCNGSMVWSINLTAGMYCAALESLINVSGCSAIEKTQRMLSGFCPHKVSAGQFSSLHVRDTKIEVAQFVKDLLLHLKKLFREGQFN

B1: BDG33.023 (antibody, V domains shown)
VH: QMQLVESGGGVVQPGRSLRLSCAASGFAFRTYGMHWVRQAPGKGLEWVAVIWYDGSNTHYADSVKGRFTITRDNSKNTLNLQMNSLRAEDTAVYYCARAPQWYLSAEAFDLWGQGTMVTVSS
VL: SYVLTQPPSVSVAPGQTARITCGGNLIGSKLVHWYQQKPGQAPVLVVYDDSDRPSRIPERFSGSNSGNTATLTISRVEAGDEADYYCQVWDHSSDHVVFGGGTKLTVL
Regarding B1, in the assay with hTSLP-His, the “IC50 (MUTZ5细胞中TSLP依赖性pSTAT5活化的抑制)” value was 13 pM. The “IC50 (IL-13信号传导级联抑制, HEK-Blue IL-4/IL-13, SEAP)” value with 重组人IL-13 (rh-IL-13) was found to be 1.3 nM.

B2: BDG38.074 (antibody, V domains shown)
VH: QMQLVESGGGVVQPGRSLRLSCAASGFAFRTYGMHWVRQAPGKGLEWVAVIWDDGSNTHYADSVKGRFTITRDNSKNTLNLQMNSLRAEDTAVYYCVRAPQWYLTAEAFDLWGQGTMVTVSS
VL: SYVLTQPPSVSVAPGQTATITCGGNMIGAYLVHWYQQKPGQAPLLVVYDDVDRPNRIPERFSGSNSGNTATLTISRVEAGDEADYYCQVWDHNTDKMVFGGGTKLTVL
Consider B2, for which the “IC50 (MUTZ-5细胞pSTAT5抑制)” value with hTSLP-His was ~35 pM.

B3: BDG33.003 (antibody, V domains shown)
VH: QMQLVESGGGVVQPGRSLRLSCAASGFTFRTYGMHWVRQAPGKGLEWVAVIWYDGSNKHYADSVKGRFTITRDNSKNTLNLQMNSLRAEDTAVYYCARAPQWELTAEAFDIWGQGTMVTVSS
VL: SYVLTQPPSVSVAPGQTARITCGGNLIGSKLVHWYQQKPGQAPVLVVYDDSDRPSLIPERFSGSNSGNTATLTISRVEAGDEADYYCQVWDSSSDGVVFGGGTKLTVL
notes: also called BGD33.003; 克隆C2
For B3, the binding result with 人TSLP (hTSLP) is reported as “binds”.

B4: BDG33.025 (antibody, V domains shown)
VH: QMQLVESGGGVVQPGRSLRLSCAASGFTFRTYGMHWVRQAPGKGLEWVADIWYDGSNKHYADSVKGRFTITRDNSKNTLNLQMNSLRAEDTAVYYCARAPQWYLVAEPFDLWGQGTMVTVSS
VL: SYVLTQPPSVSVAPGQTARITCGGNLIGSKLVHWYQQKPGQAPVLVVYDDSDRPSLIPERFSGSNSGNTATLTISRVEAGDEADYYCQVWDSSSDGVVFGGGTKLTVL
On to B4, for which the “IC50 (IL-13信号传导级联抑制, HEK-Blue IL-4/IL-13, SEAP)” value in the assay with 重组人IL-13 (rh-IL-13) was found to be 25 nM.

B5: BDG38.079 (antibody, V domains shown)
VH: QMQLVESGGGVVQPGRSLRLSCAASGFAFRTYGMHWVRQAPGKGLEWVAVIWYDGSNTHYADSVKGRFTITRDNSKNTLNLQMNSLRAEDTAVYYCVRAPQWYLTAEAFDLWGQGTMVTVSS
VL: SYVLTQPPSVSVAPGETATITCGGNMIGGYLVHWYQQKPGQAPLLVIYDDVDRPDRIPERFSGSNSGNTATLTISRVEAGDEADYYCQVWDHDSNTMVFGGGTKLTVL
As to B5, the “IC50 (MUTZ-5细胞pSTAT5抑制)” value with hTSLP-His was ~13 pM.
